Laboratory results: patent US20210145976A1 (ARO BIOTHERAPEUTICS, published 2021)

B1: SEQ ID NO 154 (designed binder)
chain: MLPAPKNLVVSRVTEDSARLSWTAPDAAFDSFFIPYAEPRPDGEAIVLTVPGSERSYDLTGLKPGTEYSVLIHGVKGGLLSSPLSAIFTT
notes: FN3 domain
B2: SEQ ID NO 150 (designed binder)
chain: MLPAPKNLVVSRVTEDSARLSWTAPDAAFDSFPIAYAEPSPTGEAIVLTVPGSERSYDLTGLKPGTEYSVLIHGVKGGHLSDPLSAIFTT
notes: FN3 domain
B3: SEQ ID NO 133 (designed binder)
chain: MLPAPKNLVVSRVTEDSARLSWTAPDAAFDSFPIVYGEAWVTGEAIVLTVPGSERSYDLTGLKPGTEYDVWIEGVKGGELSWPLSAIFTT
notes: FN3 domain
B4: SEQ ID NO 156 (designed binder)
chain: MLPAPKNLVVSRVTEDSARLSWTAPDAAFDSFAIEYFENLGIGEAIVLTVPGSERSYDLTGLKPGTEYVVNIYGVKGGWLSSPLSAIFTT
notes: FN3 domain
B5: SEQ ID NO 135 (designed binder)
chain: MLPAPKNLVVSRVTEDSARLSWTAPDAAFDSFPISYYEMSGLGEAIVLTVPGSERSYDLTGLKPGTEYMVYIFGVKGGLNSLPLSAIFTT
notes: FN3 domain
B6: SEQ ID NO 93 (designed binder)
chain: MLPAPKNLVVSRVTEDSARLSWTAPDAAFDSFYIGYLEPGDNGEAIVLTVPGSERSYDLTGLKPGTEYNVSIGGVKGGLGSYPLSAIFTT
notes: FN3 domain
B7: SEQ ID NO 160 (designed binder)
chain: MLPAPKNLVVSRVTEDSARLSWTAPDAAFDSFNIAYGEWRQHGEAIVLTVPGSERSYDLTGLKPGTEYDVFIDGVKGGNLSWPLSAIFTT
notes: FN3 domain
B8: SEQ ID NO 166 (designed binder)
chain: MLPAPKNLVVSRVTEDSARLSWTAPDAAFDSFTILYNEIQNVGEAIVLTVPGSERSYDLTGLKPGTEYDVWIEGVKGGELSWPLSAIFTT
notes: FN3 domain
B9: SEQ ID NO 144 (designed binder)
chain: MLPAPKNLVVSRVTEDSARLSWTAPDAAFDSFIIPYAEVRPDGEAIVLTVPGSERSYDLTGLKPGTEYSVLIHGVKGGKLSLPLSAIFTT
notes: FN3 domain
B10: SEQ ID NO 145 (designed binder)
chain: MLPAPKNLVVSRVTEDSARLSWTAPDAAFDSFFIPYAEPSPTGEAIVLTVPGSERSYDLTGLKPGTEYDVWIEGVKGGTLSWPLSAIFTT
notes: FN3 domain
B11: SEQ ID NO 116 (designed binder)
chain: MLPAPKNLVVSRVTEDSARLSWTAPDAAFDSFSIAYSEVRYDGEAIVLTVPGSERSYDLTGLKPGTEYVVPIGGVKGGGSSSPLSAIFTT
notes: FN3 domain
B12: SEQ ID NO 86 (designed binder)
chain: MLPAPKNLVVSRVTEDSARLSWTAPDAAFDSFIIWYAEWVNDGEAIVLTVPGSERSYDLTGLKPGTEYRVEITGVKGGTWSRPLSAIFTT
notes: FN3 domain
B13: SEQ ID NO 110 (designed binder)
chain: MLPAPKNLVVSRVTEDSARLSWTAPDAAFDSFFIHYHEWWEAGEAIVLTVPGSERSYDLTGLKPGTEYLVDIPGVKGGDLSVPLSAIFTT
notes: FN3 domain
B14: SEQ ID NO 88 (designed binder)
chain: MLPAPKNLVVSRVTEDSARLSWTAPDAAFDSFWIEYFEWTVGGEAIVLTVPGSERSYDLTGLKPGTEYYVSIYGVKGGWLSPPLSAIFTT
notes: FN3 domain
B15: SEQ ID NO 165 (designed binder)
chain: MLPARKNLVVSRVTEDSARLSWTAPDAAFDSFFIPYAEPSPTGEAIVLTVPGSERSYDLTGLKPGTEYSVLIHGVKGGHLSDPLSAISTT
notes: FN3 domain
B16: SEQ ID NO 117 (designed binder)
chain: MLPAPKNLVVSRVTEDSARLSWTAPDAAFDSFTIPYGEAFNPGEAIVLTVPGSERSYDLTGLKPGTEYDVFIEGVKGGTLSWPLSAIFTT
notes: FN3 domain
B17: SEQ ID NO 137 (designed binder)
chain: MLPAPKNLVVSRVTEDSARLSWTAPDAAFDSFEIEYDEPSVAGEAIVLTVPGSERSYDLTGLKPGTEYRVFIWGVKGGNQSWPLSAIFTT
notes: FN3 domain
B18: SEQ ID NO 159 (designed binder)
chain: MLPAPKNLVVSRVTEDSARLSWTAPDAAFDSFLIPYAETSPSGEAIVLTVPGSERSYDLTGLKPGTEYSVLIHGVKGGRNSDPLSAIFTT
notes: FN3 domain
B19: SEQ ID NO 147 (designed binder)
chain: MLPAPKNLVVSRVTEDSARLSWTAPDAAFDSFFIGYLEPQPPGEAIVLTVPGSERSYDLTGLKPGTEYSVLIHGVKGGRNSDPLSAISTT
notes: FN3 domain
B20: SEQ ID NO 98 (designed binder)
chain: MLPAPKNLVVSRITEDSARLSWTAPDAAFDSFDIPYGEFDTIGEAIVLTVPGSERSYDLTGLKPGTEYDVYIEGVKGGHLSWPLSAIFTT
notes: FN3 domain
B21: SEQ ID NO 138 (designed binder)
chain: MLPAPKNLVVSRVTEDSARLSWTAPDAAFDSFFIKYIEWWADGEAIVLTVPGSERSYDLTGLKPGTEYLVEIYGVKGGRQSYPLSAIFTT
notes: FN3 domain
B22: SEQ ID NO 141 (designed binder)
chain: MLPAPKNLVVSRVTEDSARLSWTAPDAAFDSFVIEYFEQFNLGEAIVLTVPGSERSYDLTGLKPGTEYLVGIYGVKGGWLSHPLSAIFTT
notes: FN3 domain
B23: SEQ ID NO 101 (designed binder)
chain: MLPAPKNLVVSRVTEDSARLSWTAPDAAFDSFAIDYDEPINSGEAIVLTVPGSERSYDLTGPKPGTEYEVEIYGVKGGYLSRPLSAIFTT
notes: FN3 domain
B24: SEQ ID NO 122 (designed binder)
chain: MLPAPKNLVVSRVTEDSARLSWTAPDAAFDSFQIPYWEQSLGGEAIVLTVPGSERSYDLTGLKPGTEYEVWIEGVKGGDLSFPLSAISTT
notes: FN3 domain
B25: SEQ ID NO 158 (designed binder)
chain: MLPAPKNLVVSRVTEDSARLSWTAPDAAFDSFIIDYLELDDYGEAIVLTVPGSERSYDLTGLKPGTEYPVYIYGVKGGLPSTPLSAIFTT
notes: FN3 domain
B26: SEQ ID NO 131 (designed binder)
chain: MLPAPKNLVVSRVTEDSARLSWTAPDAAFDSFSIDYYEGKGYGEAIVLTVPGSERSYDLTGLKPGTEYQVLISGVKGGKYSLPLSAIFTT
notes: FN3 domain
B27: SEQ ID NO 123 (designed binder)
chain: MLPAPKNLVVSRVTEDSARLSWTAPDAAFDSFVIPYEEYLYTGEAIVLTVPGSERSYDLTGLKPGTEYDVWIEGVKGGLTSWPLSAIFTT
notes: FN3 domain
B28: SEQ ID NO 105 (designed binder)
chain: MLPAPKNLVVSRVTEDSARLSWTAPDAAFDSFGIAYYERSGAGEAIVLTVPGSERSYDLTGLKPGTEYMVYINGVKGGFVSSPLSAIFTT
notes: FN3 domain
B29: SEQ ID NO 118 (designed binder)
chain: MLPAPKNLVVSRVTEDSARLSWTAPDAAFDSFRILYGEVDPWGEAIVLTVPGSERSYDLTGLKPGTEYDVWIEGVKGGKLSWPLSAIFTT
notes: FN3 domain
B30: SEQ ID NO 125 (designed binder)
chain: MLPAPKNLVVSRVTEDSARLSWTAPDAAFDSFVIEYFEFVGEGEAIVLTVPGSERSYDLTGLKPGTEYDVGIYGVKGGSLSSPLSAIFTT
notes: FN3 domain
B31: SEQ ID NO 132 (designed binder)
chain: MLPAPKNLVVSRVTEDSARLSWTAPDAAFDSFTIVYAEVTYDGEAIVLTVPGSERSYDLTGLKPGTEYDVFIEGVKGGELSWPLSAIFTT
notes: FN3 domain
B32: SEQ ID NO 90 (designed binder)
chain: MLPAPKNLVVSRVTEDSARLSWTAPDAAFDSFTIHYWEFDPPGEAIVLTVPGSERSYDLTGLKPGTEYTVYIEGVKGGWWSKPLSAIFTT
notes: FN3 domain
B33: SEQ ID NO 151 (designed binder)
chain: MLPAPKNLVVSRVTEDSARLSWTAPDAAFDSFFIPYAEPSPTGEAIVLTVPGSERSYDLTGLKPGTEYGVVILGVKGGYGSDPLSAIFTT
notes: FN3 domain
B34: SEQ ID NO 82 (designed binder)
chain: MLPAPKNLVVSRVTEDSARLSWTAPDAAFDSFAIAYVEWWKLGEAIVLTVPGSERSYDLTGLKPGTEYVVPIPGVKGGGHSSPLSAIFTT
notes: FN3 domain
B35: SEQ ID NO 114 (designed binder)
chain: MLPAPKNLVVSRVTEDSARLSWTAPDAAFDSFAIEYWEAVGSGEAIVLTVPGSERSYDLTGLKPGTEYHVYIYGVKGGYLSLPLSAIFTT
notes: FN3 domain
B36: SEQ ID NO 108 (designed binder)
chain: MLPAPKNLVVSRVTEDSARLSWTAPDAAFDSFTIIYGEVNPYGEAIVLTVPGSERSYDLTGLKPGTEYDVFIEGVKGGHLSWPLSAIFTT
notes: FN3 domain

Legend:
[1] = biological target: T1, recombinant biotinylated CD71 extracellular domain (Sino Biologics) with an N-terminal 6His tag (human, UniProt P02786 89-760, biotinylated (sites not given)); test: screening ELISA
T1 construct: extracellular domain; also called hCD71; huCD71
T1 sequence (P02786 other isoform, or with tags, fused parts or gaps): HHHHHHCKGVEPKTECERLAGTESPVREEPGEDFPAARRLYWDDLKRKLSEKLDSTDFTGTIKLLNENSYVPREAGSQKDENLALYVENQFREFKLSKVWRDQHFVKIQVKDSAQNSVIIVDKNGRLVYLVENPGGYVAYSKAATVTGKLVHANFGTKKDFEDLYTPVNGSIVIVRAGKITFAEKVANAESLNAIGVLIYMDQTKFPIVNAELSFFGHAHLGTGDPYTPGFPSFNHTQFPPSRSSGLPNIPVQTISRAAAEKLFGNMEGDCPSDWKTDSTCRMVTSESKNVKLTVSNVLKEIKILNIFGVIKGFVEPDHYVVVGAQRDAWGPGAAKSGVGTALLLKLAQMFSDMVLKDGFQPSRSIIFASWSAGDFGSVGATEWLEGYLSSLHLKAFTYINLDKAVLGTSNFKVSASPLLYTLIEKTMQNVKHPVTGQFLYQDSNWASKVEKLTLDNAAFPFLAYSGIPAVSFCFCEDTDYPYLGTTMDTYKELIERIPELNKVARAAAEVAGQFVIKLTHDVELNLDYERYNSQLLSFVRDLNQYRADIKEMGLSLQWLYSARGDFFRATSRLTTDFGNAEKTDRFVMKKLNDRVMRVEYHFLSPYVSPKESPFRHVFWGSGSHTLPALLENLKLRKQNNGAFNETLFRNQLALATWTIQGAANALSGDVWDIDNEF

[2] = biological target: T1, recombinant biotinylated CD71 …; test: screening ELISA, ratio

| Binder | hCD71 [1] | hCD71:HSA [2] |
| --- | --- | --- |
| B1 | 2.78e+06 | 670 |
| B2 | 2.62e+06 | 748 |
| B3 | 4.28e+06 | 855 |
| B4 | 1.03e+06 | 206 |
| B5 | 2.06e+06 | 1370 |
| B6 | 2.16e+06 | 1310 |
| B7 | 2.76e+06 | 836 |
| B8 | 2.42e+06 | 480 |
| B9 | 2.71e+06 | 986 |
| B10 | 1.62e+06 | 33 |
| B11 | 536000 | 358 |
| B12 | 3.39e+06 | 1510 |
| B13 | 1.68e+06 | 89 |
| B14 | 708000 | 118 |
| B15 | 2.64e+06 | 41 |
| B16 | 1.5e+06 | 64 |
| B17 | 484000 | 236 |
| B18 | 2.58e+06 | 1320 |

| Binder | hCD71 [1] | hCD71:HSA [2] |
| --- | --- | --- |
| B19 | 2.36e+06 | 33 |
| B20 | 1.16e+06 | 75 |
| B21 | 4.18e+06 | 1190 |
| B22 | 2.04e+06 | 648 |
| B23 | 1.97e+06 | 216 |
| B24 | 2.31e+06 | 78 |
| B25 | 2.06e+06 | 1520 |
| B26 | 2.18e+06 | 910 |
| B27 | 707000 | 228 |
| B28 | 1.76e+06 | 1260 |
| B29 | 2.24e+06 | 119 |
| B30 | 2.33e+06 | 2220 |
| B31 | 2.75e+06 | 1170 |
| B32 | 1.09e+06 | 429 |
| B33 | 1.77e+06 | 32 |
| B34 | 3.53e+06 | 187 |
| B35 | 3.27e+06 | 780 |
| B36 | 3.19e+06 | 2450 |
